Changes are numbered by the printed parent chain.

B1: 064-40.1C7 (designed binder)
chain: ALQTVCLKGTKVHMKCFLAFTQTKTFHEASEDCISRGGTLSTPQTGSENDALYEYLRQSVGNEAEIWLGLNGWLEGVGWVDMTGARIAYKNWETEITAQPDGGGGVRWENCAVLSGAANGKWFDKRCRDQLPYICQFGIV
notes: on phage
B2: 064-36.1D7 (designed binder)
chain: ALQTVCLKGTKVHMKCFLAFTQTKTFHEASEDCISRGGTLSTPQTGSENDALYEYLRQSVGNEAEIWLGLNVRHWLQLWVDMTGARIAYKNWETEITAQPDGGGWWKGENCAVLSGAANGKWFDKRCRDQLPYICQFGIV
notes: on phage
B3: 014-42.3D9 (designed binder)
chain: B1 chain with W73Y, E75A, G104R, V106F
notes: on phage
B4: 014-40.3E9 (designed binder)
chain: ALQTVCLKGTKVHMKCFLAFTQTKTFHEASEDCISRGGTLSTPQTGSENDALYEYLRQSVGNEAEIWLGLNPFRVPQWWVDMTGARIAYKNWETEITAQPDGGYGPVQENCAVLSGAANGKWFDKRCRDQLPYICQFGIV
notes: on phage
B5: 029-62.7D10 (designed binder)
chain: B1 chain with W73L, L74A, E75R, G76Q, V77Q, G104K, V106R, R107P, W108R
notes: on phage
B6: 064-36.1G10 (designed binder)
chain: B1 chain with W73Y, E75Q, V77S, G104W, G105K, V106T
notes: on phage
B7: 064-40.1G9 (designed binder)
chain: B1 chain with E75S, G104W, G105A, V106H, R107A
notes: on phage
B8: 064-36.1E10 (designed binder)
chain: B1 chain with W73F, E75A, G104W, G105W, V106T
notes: on phage
B9: 029-62.4F5 (designed binder)
chain: B4 chain with P72I, F73Q, R74C, V75S, Q77P, W78L, Y104A, G105V, P106Q, V107Q
notes: on phage
B10: 029-61.1A5 (designed binder)
chain: B1 chain with E75M, V77T, G104W, G105W, V106N
notes: on phage
B11: 064-36.1G4 (designed binder)
chain: B1 chain with G72R, W73C, E75Q, G104R, V106W, R107P
notes: on phage
B12: 014-40.3E11 (designed binder)
chain: B1 chain with W73Y, E75A, V77Y, G104P, G105S, V106I, R107W, W108R
notes: on phage
B13: 014-40.3H2 (designed binder)
chain: ALQTVCLKGTKVHMKCFLAFTQTKTFHEASEDCISRGGTLSTPQTGSENDALYEYLRQSVGNEAEIWLGLNMVTRPPYWVDMTGARIAYKNWETEITAQPDGGWVMSFENCAVLSGAANGKWFDKRCRDQLPYICQFGIV
notes: on phage
B14: 014-42.3C7 (designed binder)
chain: B1 chain with V77Y, G104T, G105W, V106W, R107E
notes: on phage
B15: 064-36.1E4 (designed binder)
chain: ALQTVCLKGTKVHMKCFLAFTQTKTFHEASEDCISRGGTLSTPQTGSENDALYEYLRQSVGNEAEIWLGLNVLRLAWSWVDMTGARIAYKNWETEITAQPDGGKRNGCENCAVLSGAANGKWFDKRCRDQLPYICQFGIV
notes: on phage
B16: 064-40.1E11 (designed binder)
chain: B1 chain with G72W, W73L, L74S, E75L, G76F, V77S, G78P, G104R, W108G
notes: on phage
B17: 014-42.3G8 (designed binder)
chain: B1 chain with E75Q, G104R, V106W, R107P
notes: on phage
B18: 029-62.2B3 (designed binder)
chain: B2 chain with V72R, R73Y, W75V, L76Q, Q77A, G104R, W105V, W106R, K107P, G108R
notes: on phage
B19: 064-21.1A5 (designed binder)
chain: B1 chain with W73F, E75Q, V77N, G104M, G105W, V106D
notes: on phage
B20: 014-40.3B3 (designed binder)
chain: B1 chain with W73Y, L74M, E75S, V77Y, G104M, G105M, V106A
notes: on phage
B21: 014-40.3B2 (designed binder)
chain: B1 chain with W73Y, L74I, V77T, G104S, G105N, V106W, R107A
notes: on phage
B22: 064-40.1G11 (designed binder)
chain: B15 chain with L73A, L75W, A76L, W77L, S78K, K104M, R105C, N106K, G107P
notes: on phage
B23: 064-36.1B7 (designed binder)
chain: B1 chain with L74M, E75A, G104R, G105R, V106L, R107P
notes: on phage
B24: 064-36.1E12 (designed binder)
chain: B1 chain with W73C, L74T, E75Q, V77Q, G104K, G105K, V106W, R107K
notes: on phage
B25: 029-62.2C5 (designed binder)
chain: B2 chain with H74R, W75M, L76G, Q77F, L78H, G104R, W105V, W106A, K107V
notes: on phage
B26: 014-40.3A3 (designed binder)
chain: B1 chain with W73F, L74M, E75V, V77R, G104S, G105M, V106W, R107P
notes: on phage
B27: 064-36.1E1 (designed binder)
chain: B1 chain with G72I, L74P, E75L, G76R, V77F, G78R, G104F, G105V, V106T, W108K
notes: on phage

The target in the assay is T1, recombinant human TRAIL R1 (DR4)/Fc chimera (human, UniProt O00220 24-239).
T1 construct: bought (R&D Systems); not shown: Fc of the bought chimera (R&D Systems)
T1 sequence: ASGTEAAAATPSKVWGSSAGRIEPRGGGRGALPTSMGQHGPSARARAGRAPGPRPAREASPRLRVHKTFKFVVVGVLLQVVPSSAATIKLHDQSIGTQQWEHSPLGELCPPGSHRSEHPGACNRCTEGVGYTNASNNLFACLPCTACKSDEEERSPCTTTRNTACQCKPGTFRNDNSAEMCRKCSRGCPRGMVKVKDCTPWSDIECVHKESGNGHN
As to the kind of experiment: phage ELISA on DR4/Fc. On the procedure:
The remaining overnight culture was used to make a master stock plate by adding 100 μL of 50% glycerol to each well and storing at −80° C. The replica culture plate was grown at 37° C. with shaking at 250 rpm for approximately 2 hrs until the OD₆₀₀ was 0.5-0.7. The wells were then infected with K07 helper phage to 5×10⁹ pfu/mL mixed and incubated at 37° C. for 30 minutes without shaking, then incubated an addition 30 minutes at 37° C. with shaking at 250 rpm. The cultures were then spun down at 2500 rpm and 4° C. for 20 minutes. The supernatants were removed from the wells and the bacterial cell pellets were re-suspended in 500 μL of 2xYT containing 50 μg/mL carbenicillin and 50 μg/mL kanamycin. An air-permeable membrane was placed on the culture block and cells were grown overnight at room temperature with shaking at 250 rpm.
On day 3, cultures were spun down and supernatants containing the phage were blocked with 3% milk/PBS for 1 hr at room temperature. An initial Phage ELISA was performed using 75-100 ng of antigen bound per well. Non-specific binding was measured using 75-100 ng of human IgG1 Fc per well. DR4/Fc antigen (R&D Systems)-coated wells and IgG Fc coated wells were prepared fresh the night before by binding the above amount of antigen diluted in 100 μL of PBS per well. Antigen plates were incubated overnight at 4° C. then for 1 hour at 37° C., washed twice with PBS/0.05% Tween 20 and twice with PBS, and then blocked with 3% milk/PBS for 1 hr at 37° C. prior to the ELISA. Blocked phage were bound to blocked antigen-bound plates for 1 hr then washed twice with 0.05% Tween 20/PBS and then twice more with PBS. A HRP-conjugated anti-M13 secondary antibody diluted in 3% milk/PBS was then applied, with binding for 1 hr and washing as described above. The ELISA signal was developed using 90 μL TMB substrate mix and then stopped with 90 μL 0.2 M sulfuric acid, then ELISA plates were read at 450 nm. […] Secondary ELISA screens were performed similarly to the protocol detailed above.
In general terms: An ELISA detects its analyte on a solid surface through an enzyme-linked reagent.
With B1, the binding result is recorded as “binds”.
Regarding B2, the binding result is reported as “binds”.
For the molecule B3, the binding result is on record as “binds”.
With B4, the binding result is on record as “binds”.
On to B5, for which the binding result is “binds”.
B6: the binding result is “binds”.
Consider B7, for which the binding result is “binds”.
As to B8, the binding result is recorded as “binds”.
Take B9: the binding result is “binds”.
Take B10: the binding result is given as “binds”.
Then B11, with “binds”; and B12, with “binds”.
On to B13, for which the binding result is given as “binds”.
With B14, the binding result is “binds”.
For B15, the binding result is “binds”.
As to B16, the binding result is “binds”.
B17: the binding result is “binds”.
B18: the binding result is reported as “binds”.
On to B19, for which the binding result is given as “binds”.
For B20, the binding result is “binds”.
In the case of B21, the binding result is listed as “binds”.
For the molecule B22, the binding result is given as “binds”.
With B23, the binding result is listed as “binds”.
B24: the binding result is given as “binds”.
For the molecule B25, the binding result is “binds”.
As to B26, the binding result is on record as “binds”.
B27: the binding result is reported as “binds”.

The values are drawn from patent US20120021995A1 (published 2012).
